These are literature values, as cited in article PMC3734285, “Expression and Function of the Lipocalin-2 (24p3/NGAL) Receptor in Rodent and Human Intestinal Epithelia” (PLoS ONE, 2013).

The subject of the data set is megalin.

B1: hNGAL: Human lipocalin-2/Neutrophil Gelatinase-Associated Lipocalin, high-affinity ligand of hNGAL-R, from Enzo Life Sciences (protein)
chain: QDSTSDLIPAPPLSKVPLQQNFQDNQFQGKWYVVGLAGNAILREDKDPQKMYATIYELKEDKSYNVTSVLFRKKKCDYWIRTFVPGCQPGEFTLGNIKSYPGLTSYLVRVVSTNYNQHAMVFFKKVSQNREYFKITLYGRTKELTSELKENFIRFSKSLGLPENHIVFPVPIDQCIDG
In the case of B1, the “fold lower affinity of megalin to hNGAL (versus hNGAL-R)” value is ~1000 fold.
